According to patent publication US9885050B2, “Molecular affinity clamp technology and uses thereof” (The University of Chicago, priority 2007, dated 2018):
Read-outs that look alike come from different tables or passages of the source.

Tests used:
ARVCF = target: T1, ARVCF (Homo sapiens, UniProt O00192); test: Western blotting of ARVCF in mammalian cell lysate; assay type: binding; settings: vs commercial monoclonal antibody
T1 construct: host or cells: mammalian cell lysate
T1 sequence (O00192 1-962): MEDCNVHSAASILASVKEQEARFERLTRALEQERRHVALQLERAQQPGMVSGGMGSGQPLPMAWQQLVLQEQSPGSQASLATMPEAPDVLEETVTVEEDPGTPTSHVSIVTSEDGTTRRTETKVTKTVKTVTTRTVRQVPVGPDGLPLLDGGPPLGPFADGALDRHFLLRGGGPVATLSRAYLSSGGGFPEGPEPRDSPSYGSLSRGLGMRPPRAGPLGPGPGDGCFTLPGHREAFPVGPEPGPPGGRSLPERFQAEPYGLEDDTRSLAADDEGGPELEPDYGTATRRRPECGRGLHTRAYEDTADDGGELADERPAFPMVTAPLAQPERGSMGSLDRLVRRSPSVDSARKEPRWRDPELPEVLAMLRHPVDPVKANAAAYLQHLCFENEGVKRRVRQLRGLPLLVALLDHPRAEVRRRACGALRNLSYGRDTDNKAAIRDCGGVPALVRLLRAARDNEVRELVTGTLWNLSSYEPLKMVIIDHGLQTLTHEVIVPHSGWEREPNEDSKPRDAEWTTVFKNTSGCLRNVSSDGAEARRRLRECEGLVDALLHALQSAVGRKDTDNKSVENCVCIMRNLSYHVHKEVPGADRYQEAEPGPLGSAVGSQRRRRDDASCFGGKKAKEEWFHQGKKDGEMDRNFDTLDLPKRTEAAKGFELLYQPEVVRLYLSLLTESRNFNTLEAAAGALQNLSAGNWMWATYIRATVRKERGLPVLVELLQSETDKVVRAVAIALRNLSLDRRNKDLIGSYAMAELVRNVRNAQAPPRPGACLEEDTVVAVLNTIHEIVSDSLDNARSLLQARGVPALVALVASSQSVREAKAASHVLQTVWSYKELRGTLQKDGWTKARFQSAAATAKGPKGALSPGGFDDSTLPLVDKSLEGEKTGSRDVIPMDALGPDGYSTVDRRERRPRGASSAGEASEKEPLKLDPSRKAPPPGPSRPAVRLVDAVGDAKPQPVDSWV

[1] = system: ARVCF target peptide (SUMO fusion) in E. coli lysate; test: Pull-down (immunoprecipitation) with biotinylated ePDZ's and streptavidin magnetic beads; assay type: binding; settings: biotinylated clamp, streptavidin magnetic beads, E. coli lysate/cell extracts
Excerpt: (§1) The PDZ-FN3 affinity clamps functioned well in Western blotting and in immunoprecipitation (pull down) assays. […] Lane 6 is a negative control for the secondary, anti-FLAG antibody. In FIG. C6B, pull-down (immunoprecipitation), biotinylated ePDZ's and streptavidin (SA)-magnetic beads were used. The input (I), unbound (U), wash (W) and bound (B) fractions were separated with SDS-PAGE and detected with CBB. Note that this is not Western blotting, which would have given higher sensitivity and specificity. […] Note that most of nonspecific binding is due to the SA-magnetic beads (lane 13). […] It is noted that the relatively low recovery of the target in the pull-down assays may be due to the fact that the off-rate was optimized for these clamps (FIG. C3).
These Kd values and dissociation rates compare favorably to those for monoclonal antibodies. The reduced dissociation rate of an affinity clamp improves its usefulness in immunochemical applications.

[2] = target: T2, δ-catenin peptide (PASPDSWV-COOH) (Homo sapiens, UniProt Q9UQB3); test: Surface plasmon resonance (SPR, BIAcore) analysis of motif binding, δ-catenin peptide; settings: for Kd: SPR; for Specificity Index: ratio of Kd for δ-catenin to Kd for ARVCF
T2 construct: yeast SUMO (N); made in house
Excerpt: (§2) Using semi-automated methods, the phage display library was sorted using an eight-residue motif (SEQ ID NO: 148) corresponding to the ARVCF C-terminus. […] The maximal motif/affinity concentrations are indicated. In B, C and F, the on and off rates are also shown on the left and right sides, respectively. […] After four rounds of sorting, two clones with high affinity were identified to the ARVCF peptide motif. ePDZ-a (SEQ ID NO: 149) and ePDZ-b (SEQ ID NO: 150) are thus (referred to as “enhanced PDZ-a” and “enhanced PDZ-b” or simply “ePDZ-a” and “ePDZ-b” respectively) potential affinity clamp candidates.
The binding specificity of the ePDZ clones was investigated. In addition to the ARVCF motif, wild-type erbin PDZ also binds to the C-terminus of δ-catenin with a low μM Kd. The two sequences differ only at positions outside the core recognition motif, DSWV (SEQ ID NO: 69) —COOH (Table 2). The affinity enhancement of ePDZ-a was similar for both targets. Remarkably, the ePDZ-b clone had very weak binding to δ-catenin, similar to the wild-type PDZ domain, showing that ePDZ-b discriminates between the two targets by ˜200 fold. Equally importantly, ePDZ-b discriminates amino acids outside the DSWV-COOH motif shared by the two peptides (Table 2), and thus, it expanded the size of the target motif. The improved specificity is consistent with the molecular affinity clamp design where the enhancer domain binds to the motif surface presented on the PDZ domain and thus can “read” the motif sequence (FIG. C2).

[3] = target: T3, ARVCF peptide (PQPVDSWV-COOH) (Homo sapiens, UniProt O00192); test: Surface plasmon resonance (SPR, BIAcore) analysis of motif binding, ARVCF peptide; settings: for koff / kon: for the ARVCF peptide; for Affinity Enhancement: ratio of Kd of parent protein (cpPDZFN) for ARVCF to that of the affinity clamp
T3 construct: made in house; host or cells: E. coli
Excerpt: as §2
These two clones were characterized as soluble proteins.
One method to improve affinity of the affinity clamp is to improve the interaction interface of the enhancer domain (e.g. the FN3 domain). […] The two second-generation variants, ePDZ-b1 (SEQ ID NO: 151) and ePDZ-b2 (SEQ ID NO: 143), were prepared as protein samples and their binding properties were analyzed using SPR. […] The affinity enhancement primarily originated from reduced dissociation rates.
A disulfide-constrained peptide was used as an enhancer domain. A peptide-PDZ affinity clamp was designed in which the diversified peptide segment was N-terminal connected to the circularly permutated PDZ domain (cpPDZ) described above. (See, FIG. F1 showing an affinity clamp constructed with Cys-constrained peptide as an enhancer domain in which (A) is a schematic drawing of the affinity clamp. Note that the peptide is attached to the N-terminus of the interaction domain. (B, C) are saturation curves of the parent PDZ (B) and peptide-PDZ Affinity Clamp (C) determined using surface plasmon resonance (SPR). SPR experiments were performed in the equilibrium mode, and the SPR response is plotted as a function of the concentration of the target peptide. The target peptide fused to the yeast SUMO protein was used in these measurements. The curves show the best fit of the 1:1 binding model to the data. The Kd values are also shown.)

Grb2-SH2 domain = target: T4, Grb2-SH2 domain (Homo sapiens, UniProt P62993); settings: For eSH2 (Grb2); read-out: Affinity if known; cited from earlier work
T4 construct: The SH2 domain of Grb2 (“Grb2-SH2” hereafter) is ˜98 residue autonomously folded domain
T4 sequence (P62993 60-152 limits assumed): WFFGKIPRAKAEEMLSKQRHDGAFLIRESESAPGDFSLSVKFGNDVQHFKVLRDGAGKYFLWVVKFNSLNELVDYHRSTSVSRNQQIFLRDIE

Pin1 WW domain = Pin1 WW domain (Homo sapiens, UniProt Q13526); settings: For eWW (Pin1 WW); read-out: Affinity if known; cited from earlier work
Chain of Pin1 WW domain (Q13526 5-39 limits assumed): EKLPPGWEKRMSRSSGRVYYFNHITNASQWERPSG

[4] = target: T5, Ala-substituted ARVCF peptide (positions −7 to −4) (Homo sapiens, UniProt O00192, V958A); test: Alanine-scanning of the ARVCF peptide by SPR; assay type: binding; settings: ARVCF peptide mutant
T5 construct: The tested positions are −7 to −4 in the ARVCF peptide (PQPVDSWV-COOH; mutated positions are underlined); yeast SUMO (N)
Experimental: (§3) To complement the library sorting experiments described above, Ala-scanning experiments of the ARVCF peptide were performed. When the goal is to define differences in the ability of ePDZ-a and ePDZ-b1 to recognize the differences between the ARVCF and δ-catenin peptides, only those positions that differ between the two peptides are analyzed.
(§4) Consistent with the peptide library sorting results, the ePDZ-b family was sensitive to Ala substitution mutations at all positions between −4 and −7. […] The results are shown in terms of changes in free energy change (ΔG=−RT ln(Kd^mutant/Kd^wild type)). […] The tested positions are −7 to −4 in the ARVCF peptide (PQPVDSWV-COOH; mutated positions are underlined). For each mutant, binding affinity was determined using surface plasmon resonance as described previously for the wild-type ARVCF peptide (69).

[5] = system: SUMO-ARVCF fusion protein; test: Western blotting of SUMO-ARVCF fusion protein in E. coli lysate; assay type: binding; settings: E. coli lysate containing 5 nanograms SUMO-ARVCF
Excerpt: as §1

ARVCF peptide = target: T6, ARVCF peptide (Homo sapiens, UniProt O00192); test: IC50 for the ARVCF peptide (Table 4); assay type: binding
T6 construct: made in house; host or cells: E. coli

[6] = system: Ala-substituted ARVCF peptide (positions −7 to −4); test: Alanine-scanning of the ARVCF peptide by SPR; assay type: binding; settings: positions −7 to −4
Experimental: as §3, §4

[7] = Table 4, read-out: Kd [nM] δ-catenin
[8] = Table 4, SPR, read-out: Kd [nM] ARVCF
[9] = Table 2, SPR, read-out: Kd, ARVCF PQPVDSWV
[10] = Table 2, read-out: Kd, δ-catenin PASPDSWV

Molecule: ePDZ-b2: second-generation affinity-matured variant of ePDZ-b, SEQ ID NO: 143 (SYYGVS)
- performance in Western blotting (ARVCF): superior to that of a commercially available monoclonal antibody
- capture of target in pull-down (immunoprecipitation) [1]: captured a target peptide from E. coli lysate in a highly specific and quantitative manner
- Kd [2, 7]: > 10000 nM
- Specificity Index [2]: >2500
- Kd [3, 8]: 4 nM
- koff ([3]; SPR): <2.9 × 10^−4 S^−1
- kon ([3]; SPR): 7.0 × 10^4 M^−1S^−1
- Affinity Enhancement [3]: 6200

Molecule: PSpYVNVQN [SHC (control)]
- Kd (Grb2-SH2 domain): 18 nM

Molecule: STSpTPR [Myt1-T455]
- Kd (Pin1 WW domain): 40000 nM

Molecule: VNATpYVNVKCVA [c-MET pY1356]
- Kd (Grb2-SH2 domain): 200 to 1000 nM

Molecule: VPRpTPV [Cdc25c-T48]
- Kd (Pin1 WW domain): 8000 nM

Molecule: LYRpSPS [Cdc25c-S214]
- Kd (Pin1 WW domain): 72000 nM

Molecule: SPQPEpYVNQPDVR [ErbB2 pY1139]
- Kd (Grb2-SH2 domain): 76 nM

Molecule: YSPTpSPS [Polll-CTD-S5]
- Kd (Pin1 WW domain): 34000 nM

Molecule: PPApTPP [Myt1-T412]
- Kd (Pin1 WW domain): 15000 nM

Molecule: ePDZ-b1: second-generation affinity-matured variant of ePDZ-b, SEQ ID NO: 151 (HYNYHYYS)
- Kd [2, 7]: > 10000 nM
- Specificity Index [2]: >2000
- reduction in affinity on Ala substitution at position −4 [4]: over 200 fold
- Kd [3, 8]: 5 nM
- koff ([3]; SPR): <3.7 × 10^−4 S^−1
- kon ([3]; SPR): 7.3 × 10^4 M^−1S^−1
- Affinity Enhancement [3]: 4960

Molecule: wt-PDZ: wild-type PDZ domain of Erbin (SEQ ID NO: 146) (YYDSHVS) [reference compound]
- detection of target in Western blotting [5]: did not
- discrimination between ARVCF peptide and δ-catenin peptide [2]: almost equally
- dissociation rate (in words) ([3]; SPR): too fast to measure
- Kd [3, 9]: ~10000 nM

B1: ePDZ-b: affinity clamp: circularly permutated erbin PDZ fused to engineered FN3, SEQ ID NO: 150, selected for ARVCF peptide (protein)
chain: MKHHHHHHHHHHSSDYKDDDDKGENLYFQGSPELGFSISGGVGGRGNPFRPDDDGIFVTRVQPEGPASKLLQPGDKIIQANGYSFINIEHGQAVSLLKTFQNTVELIIVREVGNGAKQEIRVRVEKDGGSGGVSSVPTNLEVVAATPTSLLISWDAYYDSHVSYYRITYGETGGNSPVQEFTVPGSKSTATISGLKPGVDYTITVYAHYNYHYYSSPISINYRT
- IC50 (ARVCF peptide): 59 nM
- detection of target in Western blotting [5]: detected the target
- discrimination between ARVCF peptide and δ-catenin peptide [2]: ~200 fold
- Kd [2, 10]: > 10000 nM
- Kd [2, 7]: > 10000 nM
- Specificity Index [2]: >178
- Kd [3, 9]: 56 nM
- Kd [3, 8]: 56 nM
- koff ([3]; SPR): 1.1 × 10^−2 S^−1
- kon ([3]; SPR): 1.9 × 10^5 M^−1S^−1
- Affinity Enhancement [3]: 520

B2: ePDZ-a: affinity clamp: circularly permutated erbin PDZ fused to engineered FN3, SEQ ID NO: 149, selected for ARVCF peptide (protein)
chain: MKHHHHHHHHHHSSDYKDDDDKGENLYFQGSPELGFSISGGVGGRGNPFRPDDDGIFVTRVQPEGPASKLLQPGDKIIQANGYSFINIEHGQAVSLLKTFQNTVELIIVREVGNGAKQEIRVRVEKDGGSGGVSSVPTNLEVVAATPTSLLISWDASYYGVSYYRITYGETGGNSPVQEFTVPYSSSTATISGLKPGVDYTITVYAYSDYYGSHHYSPISINYRT
- IC50 (ARVCF peptide): 40 nM
- detection of target in Western blotting [5]: detected the target
- Kd [2, 10]: 430 nM
- Kd [2, 7]: 429 nM
- Specificity Index [2]: 8
- sensitivity to Ala substitutions of the ARVCF peptide [6]: much less sensitive to the Ala substitutions
- Kd [3, 9]: 56 nM
- Kd [3, 8]: 56 ± 6 nM
- koff ([3]; SPR): 1.5 × 10^−2 S^−1
- kon ([3]; SPR): 2.9 × 10^5 M^−1S^−1
- Affinity Enhancement [3]: 520

B3: circularly permutated PDZ domain: erbin PDZ with original termini joined by Asn-Gly linker, new termini between residues 20 and 21 (protein)
chain: PELGFSISGGVGGRGNPFRPDDDGIFVTRVQPEGPASKLLQPGDKIIQANGYSFINIEHGQAVSLLKTFQNTVELIIVREVGNGAKQEIRVRVEKD
- Kd ([3]; SPR equilibrium mode, target peptide fused to yeast SUMO, read-out: dissociation constant (Kd), ARVCF peptide): 11000 ± 700 nM
